Three molecules from patent US20100047232A1 (Genentech, published 2010) can be followed below.

B3: AP-Nogo66 (ligand, human, UniProt Q9NQC3 1055-1120, looked up)
chain: RIYKGVIQAIQKSDEGHPFRAYLESEVAISEELVQKYSNSALGHVNCTIKELRRLFLVDDLVDSLK
notes: also called AO-Nogo66; not shown: FLAG tag at the N-terminus; human placental alkaline phosphatase (AP)

The target in experiment [1] is B3. Nature of the experiment: AP activity on transfected COS cells after incubation with AP-Nogo66. The protocol: In particular, on Day 1, COS7 cells were plated at a density of 85,000 cells per well in 12-well plates. On Day 2, 1 mg of pooled cDNA's were transfected per well using the lipid-based transfection reagent FuGENE 6 (Roche). On Day 4, screening was performed. Briefly, culture medium was removed from cells and replaced with 0.5 ml of 293 cell-conditioned medium containing AP-fusion bait proteins (20-50 nM). Cells were incubated at room temperature for 90 minutes. The cells were then washed 3 times with phosphate-buffered saline (PBS), fixed for 7 minutes with 4% paraformaldehyde, washed 3 times in HEPES-buffered saline (HBS), and heat inactivated at 65° C. for 90 minutes to destroy endogenous AP activity. The cells were washed once in AP Buffer (100 mM NaCl, 5 mM MgCl₂, 100 mM Tris pH 9.5), and incubated in chromogenic substrate (Western Blue, Promega), and analyzed for presence of reaction product one hour after incubation, and again after overnight incubation. Positive cells were identified by the presence of dark blue precipitate over the surface of the membrane. Positive pools were further broken down to identify individual positive clones by subsequent rounds of screening.
To confirm Nogo66 binding to LILRB2 (SEQ ID NO: 2), and to test if Nogo66 binds to the murine orthologue PirB (SEQ ID NO: 1), binding assays similar to those described in Example 1 were carried out. […]

Experiment [2] addresses B3. The experiment in a line: expression cloning, AP-fusion bait (20-50 nM) on COS7 cells transfected with human cDNA pools. From the text: (§1) To identify novel receptors for inhibitory myelin proteins, an expression cloning approach was taken. As bait, constructs were generated that fused Alkaline Phosphatase (AP) to the N- and/or C-terminus of the following characterized myelin inhibitors (human cDNA used): Nogo66, two additional inhibitory domains of NogoA (NiRD2 and NiG20) (Oertle T, J. Neurosci. 2003, 23(13): 5393-406), MAG, and OMgp. These constructs were transfected into 293 cells to produce conditioned medium (in DMEM/2% FBS) containing the bait proteins. The cDNA library used in the screen was comprised of full-length human cDNA clones in expression-ready vectors generated by Origene. These cDNAs were compiled, arrayed, and pooled. Pools of approximately 100 cDNA's were transiently transfected into COS7 cells.
(§2) In particular, on Day 1, COS7 cells were plated at a density of 85,000 cells per well in 12-well plates. On Day 2, 1 mg of pooled cDNA's were transfected per well using the lipid-based transfection reagent FuGENE 6 (Roche). On Day 4, screening was performed. […] The cells were washed once in AP Buffer (100 mM NaCl, 5 mM MgCl₂, 100 mM Tris pH 9.5), and incubated in chromogenic substrate (Western Blue, Promega), and analyzed for presence of reaction product one hour after incubation, and again after overnight incubation. […]

The target in experiment [3] is T1, Nogo Receptor (hit from the human cDNA library) (human, UniProt Q9BZR6 27-447).
T1 construct: whole, on cells; also called NgR; NgR1
T1 sequence (looked up): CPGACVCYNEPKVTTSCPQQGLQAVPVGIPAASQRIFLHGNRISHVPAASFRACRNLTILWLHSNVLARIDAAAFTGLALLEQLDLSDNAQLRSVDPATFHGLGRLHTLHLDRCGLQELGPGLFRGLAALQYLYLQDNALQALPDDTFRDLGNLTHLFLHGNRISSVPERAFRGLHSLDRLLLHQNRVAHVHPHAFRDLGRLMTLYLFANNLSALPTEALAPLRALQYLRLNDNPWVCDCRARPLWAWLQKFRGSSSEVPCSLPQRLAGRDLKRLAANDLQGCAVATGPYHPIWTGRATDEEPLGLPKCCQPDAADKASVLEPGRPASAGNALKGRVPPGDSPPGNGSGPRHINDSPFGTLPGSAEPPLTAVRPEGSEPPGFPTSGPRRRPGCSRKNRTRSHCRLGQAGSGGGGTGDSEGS
Described as above.
From the text: as §1, §2

B1: PirB (paired-immunoglobulin-like receptor B), mouse (receptor)
chain: SLPKPILRVQPDSVVSRWTKVTFFCEETIGANEYRLYKDGKLYKTVTKNKQKPANKAEFSLSNVDLRNAGQYRCSYSTQYKSSGYSDPLELVVTGDYWTPSLLAQASPVVTSGGYVTLQCESWHNDHKFILTVEGPQKLSWTQDSQYNYSTRKYHALFSVGPVTPNQRWICRCYSYDRNRPYVWSPPSESVELLVSGNLQKPTIKAEPGPVIASKRAMTIWCQGNLDAEVYFLHNEGSQKTQSTQTLQQPGNKGKFFIPSMTRQHAGQYRCYCYGSAGWSQPSDTLELVVTGIYEHYKPRLSVLPSPVVTAGGNMTLHCASDFHYDKFILTKEDKKFGNSLDTEHISSSRQYRALFIIGPTTPTHTGTFRCYGYFKNAPQLWSVPSDLQQILISGLSKKPSLLTHQGHILDPGMTLTLQCYSDINYDRFALHKVGGADIMQHSSQQTDTGFSVANFTLGYVSSSTGGQYRCYGAHNLSSEWSASSEPLDILITGQLPLTPSLSVKPNHTVHSGETVSLLCWSMDSVDTFILSKEGSAQQPLRLKSKSHDQQSQAEFSMSAVTSHLSGTYRCYGAQNSSFYLLSSASAPVELTVSGPIETSTPPPTMSMPLGGLHMYLKALIGVSVAFILFLFILIFILLRRRHRGKFRKDVQKEKDLQLSSGAEEPITRKGELQKRPNPAAATQEESLYASVEDMQTEDGVELNSWTPPEEDPQGETYAQVKPSRLRKAGHVSPSVMSREQLNTEYEQAEEGQGANNQAAESGESQDVTYAQLCSRTLRQGAAASPLSQAGEAPEEPSVYATLAAARPEAVPKDVEQ
notes: Expressed from cDNA in transfected COS7 cells; also called murine orthologue PirB
Consider B1, for which the binding result in experiment [1] is recorded as “binds”.

B2: LILRB2, transcript variant 1 (leukocyte immunoglobulin-like receptor, subfamily B, member 2) (receptor)
chain: QTGTIPKPTLWAEPDSVITQGSPVTLSCQGSLEAQEYRLYREKKSASWITRIRPELVKNGQFHIPSITWEHTGRYGCQYYSRARWSELSDPLVLVMTGAYPKPTLSAQPSPVVTSGGRVTLQCESQVAFGGFILCKEGEDEHPQCLNSQPHARGSSRAIFSVGPVSPNRRWSHRCYGYDLNSPYVWSSPSDLLELLVPGVSKKPSLSVQPGPVVAPGESLTLQCVSDVGYDRFVLYKEGERDLRQLPGRQPQAGLSQANFTLGPVSRSYGGQYRCYGAYNLSSEWSAPSDPLDILITGQIHGTPFISVQPGPTVASGENVTLLCQSWRQFHTFLLTKAGAADAPLRLRSIHEYPKYQAEFPMSPVTSAHAGTYRCYGSLNSDPYLLSHPSEPLELVVSGPSMGSSPPPTGPISTPAGPEDQPLTPTGSDPQSGLGRHLGVVIGILVAVVLLLLLLLLLFLILRHRRQGKHWTSTQRKADFQHPAGAVGPEPTDRGLQWRSSPAADAQEENLYAAVKDTQPEDGVEMDTRAAASEAPQDVTYAQLHSLTLRRKATEPPPSQEREPPAEPSIYATLAIH
notes: Expressed from full-length human cDNA in transfected COS7 cells; also called LIRB2; MIG10
Consider B2, for which the binding result in experiment [2] is “binds”.

Take B3: the binding result in experiment [3] is on record as “binds”.
